Source: PMC4176175, “Requirements for 5′dRP/AP lyase activity in Ku”

How the values were obtained:
Assay in all cases: EMSA; 1 nM Ku, 1 nM DNA, 15 min; EMSA: 1 nM Ku with 1 nM radiolabeled 30 bp DNA, 15 min, no streptavidin/UDG; buffer, salt, pH and temperature not given in the material
Conditions in all cases: protein: recombinant;recombinant, tags: C-terminal His6;, copies: 1;1, label: 3' 32P-cordycepin on strand 1, 5' overhang 3 nt (GUG) on strand 1, 5' overhang 1 nt (T) on strand 2, paired by the added 3' cordycepin
[1] = target: T1, yeast Ku70 WT;yeast Ku80 WT (Saccharomyces cerevisiae;Saccharomyces …, UniProt P32807;Q04437 1-602;1-629, |)
T1 sequence 1: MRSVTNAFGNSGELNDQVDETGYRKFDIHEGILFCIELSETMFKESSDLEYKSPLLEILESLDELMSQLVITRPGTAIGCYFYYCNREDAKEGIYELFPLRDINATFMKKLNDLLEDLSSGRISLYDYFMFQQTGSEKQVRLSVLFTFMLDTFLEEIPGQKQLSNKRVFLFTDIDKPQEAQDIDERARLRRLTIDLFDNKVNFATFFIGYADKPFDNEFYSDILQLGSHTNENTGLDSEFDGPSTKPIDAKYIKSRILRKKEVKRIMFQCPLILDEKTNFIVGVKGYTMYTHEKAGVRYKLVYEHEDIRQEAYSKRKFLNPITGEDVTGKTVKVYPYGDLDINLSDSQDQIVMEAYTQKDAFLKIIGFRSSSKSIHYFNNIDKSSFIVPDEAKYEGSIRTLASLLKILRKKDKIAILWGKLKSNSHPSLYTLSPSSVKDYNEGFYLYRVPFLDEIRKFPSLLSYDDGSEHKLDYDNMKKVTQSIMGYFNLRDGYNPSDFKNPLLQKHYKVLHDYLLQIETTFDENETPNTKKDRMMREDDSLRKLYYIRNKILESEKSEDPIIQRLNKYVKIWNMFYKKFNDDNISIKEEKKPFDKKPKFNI
T1 sequence 2: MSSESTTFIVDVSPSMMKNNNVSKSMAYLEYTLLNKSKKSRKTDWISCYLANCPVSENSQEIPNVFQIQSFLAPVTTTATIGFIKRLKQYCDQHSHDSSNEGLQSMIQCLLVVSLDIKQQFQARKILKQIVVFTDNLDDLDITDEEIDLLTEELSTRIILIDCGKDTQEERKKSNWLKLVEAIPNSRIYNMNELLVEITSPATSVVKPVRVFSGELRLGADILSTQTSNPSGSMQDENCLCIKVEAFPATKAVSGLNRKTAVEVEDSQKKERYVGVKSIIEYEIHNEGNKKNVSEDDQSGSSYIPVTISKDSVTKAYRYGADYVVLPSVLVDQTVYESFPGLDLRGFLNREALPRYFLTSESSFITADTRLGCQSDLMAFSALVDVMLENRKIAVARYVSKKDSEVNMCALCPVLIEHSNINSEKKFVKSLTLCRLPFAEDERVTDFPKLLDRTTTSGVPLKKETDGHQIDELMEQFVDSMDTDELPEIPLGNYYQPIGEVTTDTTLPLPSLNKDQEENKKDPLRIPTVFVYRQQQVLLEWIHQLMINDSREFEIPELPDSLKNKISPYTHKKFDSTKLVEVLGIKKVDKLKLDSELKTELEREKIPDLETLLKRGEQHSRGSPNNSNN

[2] = target: T2, Xenopus Ku70 WT;Xenopus Ku80 WT (Xenopus laevis;Xenopus laevis, UniProt Q9W626;Q6DDS9 1-611;1-726, |)
T2 sequence 1: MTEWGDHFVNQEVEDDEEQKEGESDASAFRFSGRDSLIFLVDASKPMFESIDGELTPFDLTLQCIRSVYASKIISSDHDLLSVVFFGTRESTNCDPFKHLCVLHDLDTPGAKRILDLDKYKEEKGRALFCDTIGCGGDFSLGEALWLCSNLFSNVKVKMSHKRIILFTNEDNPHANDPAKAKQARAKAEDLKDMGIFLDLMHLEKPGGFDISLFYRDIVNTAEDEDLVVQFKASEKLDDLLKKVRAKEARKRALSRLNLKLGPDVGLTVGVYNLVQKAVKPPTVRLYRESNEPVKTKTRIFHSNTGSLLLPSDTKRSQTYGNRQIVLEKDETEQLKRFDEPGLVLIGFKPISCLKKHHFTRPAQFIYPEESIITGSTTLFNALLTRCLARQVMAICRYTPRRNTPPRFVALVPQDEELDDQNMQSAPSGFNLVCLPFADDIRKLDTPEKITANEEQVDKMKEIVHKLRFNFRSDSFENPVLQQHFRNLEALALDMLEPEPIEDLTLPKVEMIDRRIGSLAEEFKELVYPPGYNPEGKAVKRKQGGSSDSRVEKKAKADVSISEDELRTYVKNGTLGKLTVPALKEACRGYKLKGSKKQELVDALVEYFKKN
T2 sequence 2: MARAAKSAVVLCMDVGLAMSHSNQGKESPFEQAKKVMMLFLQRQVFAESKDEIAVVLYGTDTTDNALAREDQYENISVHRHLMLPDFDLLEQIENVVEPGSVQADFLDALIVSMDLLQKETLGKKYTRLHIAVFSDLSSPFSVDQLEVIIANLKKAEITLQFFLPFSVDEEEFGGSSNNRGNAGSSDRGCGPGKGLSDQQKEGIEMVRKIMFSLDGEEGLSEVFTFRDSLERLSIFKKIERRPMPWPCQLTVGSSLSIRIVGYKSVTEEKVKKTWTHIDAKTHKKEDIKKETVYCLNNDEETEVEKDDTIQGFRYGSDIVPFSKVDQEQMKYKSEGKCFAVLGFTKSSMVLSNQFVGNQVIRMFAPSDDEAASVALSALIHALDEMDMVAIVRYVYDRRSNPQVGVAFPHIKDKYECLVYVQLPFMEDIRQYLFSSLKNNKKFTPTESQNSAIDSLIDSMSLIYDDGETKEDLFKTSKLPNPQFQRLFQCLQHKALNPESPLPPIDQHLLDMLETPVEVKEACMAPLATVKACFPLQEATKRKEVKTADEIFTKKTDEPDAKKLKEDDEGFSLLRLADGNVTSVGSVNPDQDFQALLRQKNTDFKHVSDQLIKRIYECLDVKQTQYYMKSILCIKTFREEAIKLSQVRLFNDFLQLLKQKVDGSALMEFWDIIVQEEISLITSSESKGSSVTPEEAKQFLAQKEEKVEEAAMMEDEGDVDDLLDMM

[3] = target: T3, yeast Ku70 2A;yeast Ku80 WT (Saccharomyces cerevisiae;Saccharomyces …, UniProt P32807;Q04437 1-602;1-629, K25A;K161A|)
T3 sequence 1: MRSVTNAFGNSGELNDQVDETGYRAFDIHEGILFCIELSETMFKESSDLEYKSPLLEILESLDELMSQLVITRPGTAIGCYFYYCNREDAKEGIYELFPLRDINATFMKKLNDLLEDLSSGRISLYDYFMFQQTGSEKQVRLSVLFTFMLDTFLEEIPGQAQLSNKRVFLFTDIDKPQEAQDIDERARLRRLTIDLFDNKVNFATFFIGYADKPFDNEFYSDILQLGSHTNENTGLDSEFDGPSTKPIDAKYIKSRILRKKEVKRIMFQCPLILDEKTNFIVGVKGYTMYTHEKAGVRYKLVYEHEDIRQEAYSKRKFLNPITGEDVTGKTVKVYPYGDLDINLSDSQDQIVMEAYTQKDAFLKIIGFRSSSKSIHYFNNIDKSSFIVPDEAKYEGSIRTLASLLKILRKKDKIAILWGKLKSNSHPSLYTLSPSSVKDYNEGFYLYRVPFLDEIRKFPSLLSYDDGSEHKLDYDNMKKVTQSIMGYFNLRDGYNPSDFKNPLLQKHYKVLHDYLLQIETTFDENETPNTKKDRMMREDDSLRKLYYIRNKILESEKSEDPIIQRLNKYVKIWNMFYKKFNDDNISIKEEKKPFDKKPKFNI
T3 sequence 2: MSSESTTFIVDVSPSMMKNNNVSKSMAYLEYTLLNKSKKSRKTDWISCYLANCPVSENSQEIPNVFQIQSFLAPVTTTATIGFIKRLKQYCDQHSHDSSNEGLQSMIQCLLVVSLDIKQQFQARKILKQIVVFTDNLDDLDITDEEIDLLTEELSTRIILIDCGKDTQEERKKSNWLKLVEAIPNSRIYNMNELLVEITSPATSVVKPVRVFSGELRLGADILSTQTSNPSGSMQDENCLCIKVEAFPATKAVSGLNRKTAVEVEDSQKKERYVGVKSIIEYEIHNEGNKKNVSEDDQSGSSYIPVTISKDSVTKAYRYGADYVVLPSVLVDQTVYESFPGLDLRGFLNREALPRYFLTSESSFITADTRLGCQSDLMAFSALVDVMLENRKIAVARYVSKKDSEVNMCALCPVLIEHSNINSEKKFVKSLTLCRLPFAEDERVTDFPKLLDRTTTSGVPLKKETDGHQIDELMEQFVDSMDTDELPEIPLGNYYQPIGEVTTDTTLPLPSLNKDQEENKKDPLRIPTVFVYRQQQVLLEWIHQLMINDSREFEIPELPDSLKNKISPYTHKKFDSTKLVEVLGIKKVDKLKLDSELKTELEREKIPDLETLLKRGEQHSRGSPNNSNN

Measured: binding result

B1: 30 bp EMSA substrate (dsDNA)
DNA 1: GUGGAAATCAAACGTAAGTAGAATCCAAAGTCT
DNA 2: TAGACTTTGGATTCTACTTACGTTTGATTTC
modifications: deoxyuridine at position 2 of strand 1 (no UDG treatment for EMSA); 5' phosphate on strand 1; 5' biotin-TEG on strand 2
binds: [1] | [2] | [3]
